In patent US20250270343A1 (Alector, published 2025):

Key:
[1] = molecular target: T1, soluble mouse GPNMB-Fc polypeptide (mouse IgG2A Fc) (mouse, UniProt Q99P91 23-502); assay: FACS, blocking of mGPNMB-Fc binding to SVEC cells
T1 construct: extracellular domain; bought (R&D System); also called moGPNMB-Fc; mGPNMB-Fc; not shown: Fc region of mouse IgG2A
T1 sequence (looked up): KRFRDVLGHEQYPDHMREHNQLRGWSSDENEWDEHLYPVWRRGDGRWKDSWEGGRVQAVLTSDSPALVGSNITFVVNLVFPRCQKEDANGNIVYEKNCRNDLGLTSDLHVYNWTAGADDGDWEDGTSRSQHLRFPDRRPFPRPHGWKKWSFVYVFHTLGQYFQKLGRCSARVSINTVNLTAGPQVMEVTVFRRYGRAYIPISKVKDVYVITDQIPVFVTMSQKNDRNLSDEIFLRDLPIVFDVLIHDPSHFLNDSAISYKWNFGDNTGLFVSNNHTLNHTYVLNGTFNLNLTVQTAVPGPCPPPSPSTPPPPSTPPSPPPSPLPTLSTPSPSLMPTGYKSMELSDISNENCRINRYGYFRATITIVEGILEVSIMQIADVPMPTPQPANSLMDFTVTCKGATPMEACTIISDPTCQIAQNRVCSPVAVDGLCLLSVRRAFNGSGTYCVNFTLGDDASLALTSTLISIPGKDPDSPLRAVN
Experimental: Purified full-length affinity matured, anti-GPNMB antibodies were evaluated for their ability to block binding of mouse GPNMB-Fc to SVEC cells to calculate the ligand blocking potency of each clone. Briefly, 2 μg/ml soluble mGPNMB-Fc (mouse IgG2A Fc) diluted in binding buffer was pre-complexed with increasing concentrations of anti-GPNMB antibody or human IgG1 isotype control in 96-well plates. Subsequently, 100,000 SVEC cells were added per well and incubated on ice for 30 minutes. Soluble GPNMB-Fc bound to cell surface was detected with fluorescent anti-mouse IgG2A secondary antibody and measured on FACSCanto. Curves were fit using nonlinear regression analysis with Graphpad Prism 6 software.

[2] = molecular target: T2, mouse GPNMB endogenously expressed on B16F10 cells (mouse, UniProt Q99P91 23-574); assay: FACS titration, B16F10 cells
T2 construct: whole, on cells; also called moGPNMB
T2 sequence (looked up): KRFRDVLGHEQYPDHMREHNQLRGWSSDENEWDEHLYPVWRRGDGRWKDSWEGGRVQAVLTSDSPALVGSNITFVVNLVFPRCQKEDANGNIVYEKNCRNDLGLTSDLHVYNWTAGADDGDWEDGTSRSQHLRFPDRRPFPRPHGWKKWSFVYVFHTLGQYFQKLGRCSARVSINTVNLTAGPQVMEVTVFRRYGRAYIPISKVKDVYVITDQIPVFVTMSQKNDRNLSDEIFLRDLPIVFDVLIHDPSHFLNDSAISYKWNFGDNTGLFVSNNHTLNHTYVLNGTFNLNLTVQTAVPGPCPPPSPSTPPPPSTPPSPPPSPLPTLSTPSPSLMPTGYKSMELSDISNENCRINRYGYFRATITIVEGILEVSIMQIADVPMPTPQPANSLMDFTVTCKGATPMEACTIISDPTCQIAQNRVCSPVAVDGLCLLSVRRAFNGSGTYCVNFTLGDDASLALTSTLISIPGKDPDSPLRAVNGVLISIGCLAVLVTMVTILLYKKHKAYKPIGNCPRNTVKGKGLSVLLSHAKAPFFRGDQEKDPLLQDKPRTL
Experimental: (§1) Affinity matured anti-GPNMB antibodies of the present disclosure were examined to determine their ability to bind human and mouse GPNMB expressed on FS293-huGPNMB+ or B16F10 cells, respectively. Cell-based affinity measurements were performed to ascertain the apparent affinities of anti-GPNMB antibodies to cell-surface expressed GPNMB. Serial dilutions of anti-GPNMB antibodies of the present disclosure were added to 100,000 FS293-huGPNMB+ or B16F10 cells and allowed to achieve binding equilibrium at 4° C. After addition of fluorescently labeled secondary antibody and brief washing steps, MFI values as a function of titrated antibody concentration were recorded via FACS analysis. Equilibrium binding curves were fit using nonlinear regression analysis with Graphpad Prism 6 software.

[3] = molecular target: T3, full-length untagged human GPNMB expressed on cells (human, UniProt Q14956 23-572); assay: cell-based or functional assay
T3 sequence: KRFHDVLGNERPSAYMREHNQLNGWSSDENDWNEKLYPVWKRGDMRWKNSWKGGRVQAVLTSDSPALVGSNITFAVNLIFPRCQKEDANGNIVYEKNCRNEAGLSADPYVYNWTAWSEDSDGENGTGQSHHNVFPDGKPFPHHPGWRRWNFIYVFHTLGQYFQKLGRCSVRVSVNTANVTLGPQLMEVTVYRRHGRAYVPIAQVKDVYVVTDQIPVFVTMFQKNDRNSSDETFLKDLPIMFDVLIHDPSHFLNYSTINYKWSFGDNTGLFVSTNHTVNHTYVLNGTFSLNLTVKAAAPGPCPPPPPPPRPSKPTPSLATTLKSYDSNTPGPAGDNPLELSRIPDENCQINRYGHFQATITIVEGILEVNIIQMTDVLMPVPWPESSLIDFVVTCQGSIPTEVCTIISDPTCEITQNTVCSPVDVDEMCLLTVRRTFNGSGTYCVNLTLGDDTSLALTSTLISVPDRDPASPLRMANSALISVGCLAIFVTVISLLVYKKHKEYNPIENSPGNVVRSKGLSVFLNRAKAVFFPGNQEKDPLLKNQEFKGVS

[4] = molecular target: T3, full-length untagged human GPNMB …; assay: cell-based or functional assay; remark: listed apart in the source
[5] = molecular target: T3, full-length untagged human GPNMB …; assay: cell-based or functional assay; remark: listed apart in the source
[6] = molecular target: T3, full-length untagged human GPNMB …; assay: FACS titration, FS293-huGPNMB+ cells
Experimental: as §1

B1: anti-GPNMB antibody GPN-83 (antibody, V domains shown)
VH: QVQLQESGPGLVKPSETLSLTCTVSGISITTGNYRWSWIRQPPGKGLEWIGYIDYSGTITYNPSLKSRVTITRDTSKNQFSLELSSVTAADTAVYYCARDLTHWYFDVWGQGTLVTVSS
VL: DIVMTQSPDSLAVSLGERATINCKSSRSVDYYGIGFVNWYQQKPGQPPKLLIYATSIQGSGVPDRFSGSGSGTDFTLTISSLQAEDVAVYYCQQQKEVPPTFGGGTKVEIK
IC50 [1]: 1.49 nM
EC50 [2]: 0.293 nM
EC50 GCase [3]: 0.834 nM
EC50 Lyso Tracker [3]: 1.17 nM
Fold Decrease Lyso Tracker (max response at 1 µg/ml) [3]: 0.755 fold
Fold Increase GCase (max response at 1 µg/ml) [3]: 1.32 fold
EC50 PDL1 [4]: 0.91 nM
Fold Increase CD40 (max response at 1 µg/ml) [4]: 2.1 fold
Fold Increase PDL1 (max response at 1 µg/ml) [4]: 4.31 fold
Inflammasome: Fold Decrease IL-1β (max response at 0.3 µg/ml) [5]: 0.472 fold
EC50 [6]: 0.203 nM

B2: anti-GPNMB antibody GPN-89 (antibody, V domains shown)
VH: QVQLQESGPGLVKPSETLSLTCTVSGISITTGNYRWSWIRQPPGKGLEWIGYIDYSGTITYNPSLKSRVTITRDTSKNQFSLELSSVTAADTAVYYCARDLTHWYYDVWGQGTLVTVSS
VL: DIVMTQSPDSLAVSLGERATINCKSSRSVDYYGIGFLNWYQQKPGQPPKLLIYATSHQGSGVPDRFSGSGSGTDFTLTISSLQAEDVAVYYCQQQKEVPPTFGGGTKVEIK
IC50 [1]: 1.18 nM
EC50 [2]: 0.443 nM
EC50 GCase [3]: 0.898 nM
EC50 Lyso Tracker [3]: 1.18 nM
Fold Decrease Lyso Tracker (max response at 1 µg/ml) [3]: 0.757 fold
Fold Increase GCase (max response at 1 µg/ml) [3]: 1.35 fold
EC50 PDL1 [4]: 1 nM
Fold Increase CD40 (max response at 1 µg/ml) [4]: 2.12 fold
Fold Increase PDL1 (max response at 1 µg/ml) [4]: 4.22 fold
Inflammasome: Fold Decrease IL-1β (max response at 0.3 µg/ml) [5]: 0.501 fold
EC50 [6]: 0.167 nM

B3: anti-GPNMB antibody GPN-84 (antibody, V domains shown)
VH: QVQLQESGPGLVKPSETLSLTCTVSGISITTGNYRWSWIRQPPGKGLEWIGYIDYSGTITYNPSLKSRVTITRDTSKNQFSLELSSVTAADTAVYYCARDLTHWYYDVWGQGTLVTVSS
VL: DIVMTQSPDSLAVSLGERATINCKSSRSVDYYGIGFVNWYQQKPGQPPKLLIYATSIQGSGVPDRFSGSGSGTDFTLTISSLQAEDVAVYYCQQQKEVPPTFGGGTKVEIK
IC50 [1]: 1.44 nM
EC50 [2]: 0.33 nM
EC50 [6]: 0.241 nM

B4: anti-GPNMB antibody GPN-85 (antibody, V domains shown)
VH: QVQLQESGPGLVKPSETLSLTCTVSGISITTGNYRWSWIRQPPGKGLEWIGYIDYSGTITYNPSLKQRVTITRDTSKNQFSLELSSVTAADTAVYYCARDLTHWYFDVWGQGTLVTVSS
VL: DIVMTQSPDSLAVSLGERATINCKSSRSVDYFGIGFLNWYQQKPGQPPKLLIYATSHQGSGVPDRFSGSGSGTDFTLTISSLQAEDVAVYYCQQQKEVPPTFGGGTKVEIK
IC50 [1]: 1.51 nM
EC50 [2]: 0.317 nM
EC50 GCase [3]: 2.2 nM
EC50 Lyso Tracker [3]: 1.39 nM
Fold Decrease Lyso Tracker (max response at 1 µg/ml) [3]: 0.755 fold
Fold Increase GCase (max response at 1 µg/ml) [3]: 1.31 fold
EC50 PDL1 [4]: 0.97 nM
Fold Increase CD40 (max response at 1 µg/ml) [4]: 2.1 fold
Fold Increase PDL1 (max response at 1 µg/ml) [4]: 4.22 fold
Inflammasome: Fold Decrease IL-1β (max response at 0.3 µg/ml) [5]: 0.601 fold
EC50 [6]: 0.385 nM

B5: anti-GPNMB antibody GPN-87 (antibody, V domains shown)
VH: QVQLQESGPGLVKPSETLSLTCTVSGISITTGNYRWSWIRQPPGKGLEWIGYIDYSGTITYNPSLKSRVTITRDTSKNQFSLELSSVTAADTAVYYCARDLTHWYYDVWGQGTLVTVSS
VL: DIVMTQSPDSLAVSLGERATINCKSSRSVDYYGIGFLNWYQQKPGQPPKLLIYATSKQGSGVPDRFSGSGSGTDFTLTISSLQAEDVAVYYCQQQKEVPPTFGGGTKVEIK
IC50 [1]: 0.98 nM
EC50 [2]: 0.37 nM
EC50 GCase [3]: 0.767 nM
EC50 Lyso Tracker [3]: 1.06 nM
Fold Decrease Lyso Tracker (max response at 1 µg/ml) [3]: 0.716 fold
Fold Increase GCase (max response at 1 µg/ml) [3]: 1.36 fold
EC50 PDL1 [4]: 1.36 nM
Fold Increase CD40 (max response at 1 µg/ml) [4]: 2.15 fold
Fold Increase PDL1 (max response at 1 µg/ml) [4]: 4.4 fold
Inflammasome: Fold Decrease IL-1β (max response at 0.3 µg/ml) [5]: 0.428 fold
EC50 [6]: 0.317 nM

B6: anti-GPNMB antibody GPN-91 (antibody, V domains shown)
VH: QVQLQESGPGLVKPSETLSLTCTVSGISITTGNYRWSWIRQPPGKGLEWIGYIDYSGTITYNPSLKSRVTITRDTSKNQFSLELSSVTAADTAVYYCARDLTHWYFDVWGQGTLVTVSS
VL: DIVMTQSPDSLAVSLGERATINCKSSRSVDYYGIGFLNWYQQKPGQPPKLLIYATSHQGSGVPDRFSGSGSGTDFTLTISSLQAEDVAVYYCQQQKERPPTFGGGTKVEIK
IC50 [1]: 0.64 nM
EC50 [2]: 0.273 nM
EC50 [6]: 0.24 nM

B7: anti-GPNMB antibody GPN-88 (antibody, V domains shown)
VH: QVQLQESGPGLVKPSETLSLTCTVSGISITTGNYRWSWIRQPPGKGLEWIGYIDYSGTITYNPSLKSRVTITRDTSKNQFSLELSSVTAADTAVYYCARDLTHWYFDVWGQGTLVTVSS
VL: DIVMTQSPDSLAVSLGERATINCKSSRSVDYYGIGFLNWYQQKPGQPPKLLIYATSHQGSGVPDRFSGSGSGTDFTLTISSLQAEDVAVYYCQQQKHVPPTFGGGTKVEIK
IC50 [1]: 0.625 nM
EC50 [2]: 0.262 nM
EC50 [6]: 0.192 nM
